The values that follow come from patent publication US20170042969A1.

Where a chain is given by its changes, count along the chain named. Numbers in names are those of the source.

The target in this experiment is ornithine decarboxylase (ODC) present in Xenopus laevis oocytes. Kind of experiment: cell-based or functional assay.

B1: hRS1-Reg(S20E) (protein, not shown: small tags and cut ends)
chain: SSGQEPDVGNPMSLARSVSASVCPIKPSDSDRIEPKAVKALKASAEFQLNSEKKEHLSLQDLSDHASSADHAPTDQSPAMPMQ
Consider B1, for which the IC50 for down-regulation of hSGLT1 at low intracellular AMG, against hRS1-Reg wildtype was determined as 6300 times; the affinity for down-regulation of hSGLT1 in the presence of intracellular glucose, against hRS1-Reg wildtype turned out to be 1.5e+07 times; the change of IC50 for down-regulation of hSGLT1 at high intracellular AMG (~250 µM) against low AMG came to 300 fold; the increase of affinity for down-regulation of hSGLT1 against hRS1-Reg wildtype or hRS1-Reg(S20A) lay in the range of 4000 to 6000 fold.

B2: hRS1-Reg(S20A) (protein, not shown: small tags and cut ends)
chain: B1 chain with E5A
For the molecule B2, the decrease of affinity for down-regulation of hSGLT1 at high intracellular glucose was 7 to 8 fold.
